Measurements: patent US20200190189A1 (Adimab, published 2020)

B1: ADI-22523 IgG1 (antibody, V domains shown)
VH: QVQLVQSGAEVKKPGASVKVSCKASGFNIKDYYMHWVRQAPGQRLEWMGWIDLENGNTIYDPKFQGRVTITRDTSASTAYMELSSLRSEDTAVYYCARDGYGRYFYDVWGQGTLVTVSS
VL: DIVMTQSPDSLAVSLGERATINCKSSQSLLNSRTGKNYLAWYQQKPGQPPKLLIYWASTRESGVPDRFSGSGSGTDFTLTISSLQAEDVAVYYCKQSYSRRTFGGGTKVEIK
B2: ADI-26906 IgG1 (antibody, V domains shown)
VH: QVQLVQSGAEVKKPGASVKVSCKASGFNIKDYYMHWVRQAPGQRLEWMGWIDLENANTIYDAKFQGRVTITRDTSASTAYMELSSLRSEDTAVYYCARDAYGRYFYDVWGQGTLVTVSS
VL: DIVMTQSPDSLAVSLGERATINCKSSQSLLNARTGKNYLAWYQQKPGQPPKLLIYWASTRESGVPDRFSGSGSGTDFTLTISSLQAEDVAVYYCKQSYSRRTFGGGTKVEIK
B3: ADI-26908 IgG1 (antibody, V domains shown)
VH: QVQLVQSGAEVKKPGASVKVSCKASGFNIKDYYMHWVRQAPGQRLEWMGWIDLEEGNTIYDAKFQGRVTITRDTSASTAYMELSSLRSEDTAVYYCARDAYGRYFYDVWGQGTLVTVSS
VL: DIVMTQSPDSLAVSLGERATINCKSSQSLLNARTGKNYLAWYQQKPGQPPKLLIYWASTRESGVPDRFSGSGSGTDFTLTISSLQAEDVAVYYCKQSYSRRTFGGGTKVEIK
B4: ADI-26913 IgG1 (antibody, V domains shown)
VH: QVQLVQSGAEVKKPGASVKVSCKASGFNIKDYYMHWVRQAPGQRLEWMGWIDLENANTIYDAKFQGRVTITRDTSASTAYMELSSLRSEDTAVYYCARDQYGRYFYDVWGQGTLVTVSS
VL: DIVMTQSPDSLAVSLGERATINCKSSQSLLNARTGKNYLAWYQQKPGQPPKLLIYWASTRESGVPDRFSGSGSGTDFTLTISSLQAEDVAVYYCKQSYSRRTFGGGTKVEIK
B5: ADI-26915 IgG1 (antibody, V domains shown)
VH: QVQLVQSGAEVKKPGASVKVSCKASGFNIKDYYMHWVRQAPGQRLEWMGWIDLEEGNTIYDAKFQGRVTITRDTSASTAYMELSSLRSEDTAVYYCARDVLGRYFYDVWGQGTLVTVSS
VL: DIVMTQSPDSLAVSLGERATINCKSSQSLLNARTGKNYLAWYQQKPGQPPKLLIYWASTRESGVPDRFSGSGSGTDFTLTISSLQAEDVAVYYCKQSYSRRTFGGGTKVEIK

Assays:
[1] = target: T1, Human CD3εδ heterodimeric Fc fusion (Hu CD3εδ Fc) (human); assay: IgG, avid; method not named at the table (ForteBio BLI in Methods)
T1 chain 1: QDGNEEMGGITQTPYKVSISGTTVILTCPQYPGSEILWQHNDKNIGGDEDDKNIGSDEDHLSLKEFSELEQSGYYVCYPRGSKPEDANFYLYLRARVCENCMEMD
T1 chain 2: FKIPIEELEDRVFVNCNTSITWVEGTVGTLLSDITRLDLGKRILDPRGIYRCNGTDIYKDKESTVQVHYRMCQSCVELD

[2] = target: T2, Cynomolgus CD3εδ heterodimeric Fc fusion (Cy CD3εδ Fc) (cynomolgus); assay: as above
T2 chain 1: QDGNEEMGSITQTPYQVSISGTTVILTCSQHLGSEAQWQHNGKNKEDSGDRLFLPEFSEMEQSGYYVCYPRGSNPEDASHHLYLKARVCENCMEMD
T2 chain 2: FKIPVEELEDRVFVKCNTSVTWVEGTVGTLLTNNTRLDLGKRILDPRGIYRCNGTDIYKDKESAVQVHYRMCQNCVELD

| Kd [1] [pM] | Kd [2] [pM] | Binder |
| --- | --- | --- |
| 200 | 220 | B1 |
| 1600 | 250 | B2 |
| 1500 | 310 | B3 |
| 2200 | 400 | B4 |
| 3300 | 2600 | B5 |
